# Paper PMC4837482, “The complex binding mode of the peptide hormone H2 relaxin to its receptor RXFP1” (Nature Communications, 2016)
# Residue numbers refer to the chain shown, from its start.
# Tests used:
# RXFP1 [1] = target: T1, RXFP1 (Homo sapiens, UniProt Q9HBX9); assay: Eu-H2 relaxin saturation binding assay, transfected HEK293T cells; settings: Mn2+ replacing Eu3+ in the DTPA cage; method not described
# T1 construct: transiently transfected human embryonic kidney (HEK) 293T cells expressing full-length RXFP1 and mutants; expressed in transfected cells; host or cells: HEK293T
# T1 sequence (Q9HBX9 1-757): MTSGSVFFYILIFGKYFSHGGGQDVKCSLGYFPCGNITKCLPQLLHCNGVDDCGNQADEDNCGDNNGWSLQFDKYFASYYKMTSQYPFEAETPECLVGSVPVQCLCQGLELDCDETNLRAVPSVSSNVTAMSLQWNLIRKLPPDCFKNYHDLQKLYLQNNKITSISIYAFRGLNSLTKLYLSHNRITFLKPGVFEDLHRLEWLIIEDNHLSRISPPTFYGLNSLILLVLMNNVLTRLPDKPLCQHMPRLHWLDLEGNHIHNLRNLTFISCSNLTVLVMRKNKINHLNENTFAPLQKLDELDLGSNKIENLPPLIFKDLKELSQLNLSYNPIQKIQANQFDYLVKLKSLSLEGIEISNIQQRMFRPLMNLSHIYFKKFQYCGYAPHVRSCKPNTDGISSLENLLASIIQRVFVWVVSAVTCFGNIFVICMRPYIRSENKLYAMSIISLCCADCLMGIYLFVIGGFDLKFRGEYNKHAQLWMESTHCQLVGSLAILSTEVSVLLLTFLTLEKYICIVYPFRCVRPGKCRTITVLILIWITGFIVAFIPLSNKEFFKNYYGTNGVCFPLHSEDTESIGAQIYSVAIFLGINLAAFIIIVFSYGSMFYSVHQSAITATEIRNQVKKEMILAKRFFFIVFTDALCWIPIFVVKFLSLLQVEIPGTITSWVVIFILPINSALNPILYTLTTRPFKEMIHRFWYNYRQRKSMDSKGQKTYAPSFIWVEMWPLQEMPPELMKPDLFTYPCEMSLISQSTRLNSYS
# RXFP1 [2] = target: T1, RXFP1; assay: cAMP activity assay (pCRE β-galactosidase reporter), transfected HEK293T cells; type: cell-based; settings: Mn2+ replacing Eu3+ in the DTPA cage; method not described
# Description: Media was aspirated and plates stored frozen at −80 °C overnight. […] H2 relaxin dilutions were prepared in minimal media containing 1% DMSO. Positive and negative control stimulations were achieved by incubation with 5 μM Forskolin and minimal media/1% DMSO, respectively. Plates were developed by 10 min of incubation in 25 μl of lysis buffer 1 (100 mM Na2HPO4, pH 8.0, 0.2 mM MgSO4 0.01 mM MnCl2); a further 10 min of incubation in 100 μl of buffer 2 (100 mM Na2HPO4, pH 8.0, 2 mM MgSO4, 0.1 mM MnCl2, 0.5% Triton X-100, 40 mM β-mercaptoethanol); then to each well 25 μl of the β-galactosidase substrate, chlorophenol red-β-D-galactopyranoside (Roche) was added. All incubation steps were conducted with orbital shaking. Color-change was monitored and readings were taken on a Benchmark Plus Microplate Reader (Bio-Rad) at 570 nm. A minimum of three separate experiments were performed, each of them in triplicate, and data were pooled and presented as percentages of the maximum response induced by 5 μM Forskolin±s.e.m.
# F50A RXFP1(1–72) = target: T2, F50A RXFP1(1–72) (Homo sapiens, UniProt Q9HBX9, F72A); assay: Paramagnetic line-broadening (1H-15N HSQC) titration with Mn2+-DTPA-(A)-H2; type: binding; settings: 50 μM F50A RXFP1(1–72), 0.2 μM Mn2+-DTPA-(A)-H2; versus wild type
# T2 construct: GB1 (N, cleaved yes); made in house; host or cells: E. coli BL21 (DE3) trxB
# T2 sequence (Q9HBX9 23-94 F72A): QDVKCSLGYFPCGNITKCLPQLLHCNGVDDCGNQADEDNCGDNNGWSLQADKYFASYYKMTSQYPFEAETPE
# Description: (§1) All RXFP1(1–72) protein samples for nuclear magnetic resonance (NMR) experiments were prepared from lyophilized protein in 50 mM imidazole, with 10 mM CaCl2 at pH 6.8. Recombinant human gene-2 H2 relaxin peptide was kindly provided by Corthera. EL1^(475–486)/EL2-GB1 samples were prepared as described above. Titrant and titrand were dialyzed in the same buffer in the same vessel. All NMR experiments were routinely collected at 25 °C on a 700-MHz Bruker Avance HDIII spectrometer equipped with triple resonance cryoprobe. […] Backbone assignments were made from 3D HNCACB, HNCOCACB, HNCO and HNCACO experiments. Spectra were processed using NMRPipe (ref. [43]) and typically Fourier-transformed after applying Lorentz-to-Gauss window functions in the direct dimension and cosine bells in the indirect dimensions. NMR data were analysed using SPARKY (Goddard, T.D. and Kneller, D.G., University of California, San Francisco). Assignments of the mutant RXFP1(1–72) proteins were determined from the assignments of wild-type RXFP1(1–72).
# (§2) ^15N{^1H}-NOE experiments[45] (2,048 × 256 data points) were acquired with a saturation pulse of 4 s and an additional relaxation delay of 5 s. Sample conditions were 150 μM RXFP(1–72) or mutants either without or with 450 μM H2 relaxin. Binding to Mn^2+-DTPA-(A)-H2 to RXFP1(1–72) and mutants was monitored by recording 2D ^1H-^15N HSQC (2,048 × 256 data points) for 0.2 μM Mn^2+-DTPA-(A)-H2 against 50 μM RXFP1(1–72). H2 relaxin and its truncates such as A-chain (9–24), H2/I5 chimera and Phe23Ala A-chain mutant H2 were titrated into a complex of 50 μM RXFP1(1–72) and 0.2 μM Mn^2+-DTPA-(A)-H2 with increasing concentrations ranging from 5 to 50 μM.
# F54A-RXFP1(1–72) = target: T3, F54A-RXFP1(1–72) (Homo sapiens, UniProt Q9HBX9, F76A); assay: as above; type: binding; settings: 50 μM F54A-RXFP1(1–72), 0.2 μM Mn2+-DTPA-(A)-H2; versus wild type
# T3 construct: GB1 (N, cleaved yes); made in house; host or cells: E. coli BL21 (DE3) trxB
# T3 sequence (Q9HBX9 23-94 F76A): T2 sequence (Q9HBX9 23-94 F72A) with A50F, F54A
# Description: as §1, §2
# F50A^Ins-RXFP1(1–72) = target: T4, F50A^Ins-RXFP1(1–72) (Homo sapiens, UniProt Q9HBX9, INS72A); assay: as above; type: binding; settings: 50 μM F50A^Ins-RXFP1(1–72), 0.2 μM Mn2+-DTPA-(A)-H2; versus wild type
# T4 construct: GB1 (N, cleaved yes); made in house; host or cells: E. coli BL21 (DE3) trxB
# T4 sequence (Q9HBX9 with tags, fused parts or gaps INS72A): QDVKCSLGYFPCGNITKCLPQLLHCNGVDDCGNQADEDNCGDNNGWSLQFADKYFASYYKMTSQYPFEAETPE
# Description: as §1, §2
# G41A/D42A-RXFP1(1–72) = target: T5, G41A/D42A-RXFP1(1–72) (Homo sapiens, UniProt Q9HBX9, D64A/G63A); assay: as above; type: binding; settings: 50 μM G41A/D42A-RXFP1(1–72), 0.2 μM Mn2+-DTPA-(A)-H2; versus wild type
# T5 construct: GB1 (N, cleaved yes); made in house; host or cells: E. coli BL21 (DE3) trxB
# T5 sequence (Q9HBX9 23-94 G63A/D64A): T2 sequence (Q9HBX9 23-94 F72A) with G41A, D42A, A50F
# Description: as §1, §2
# G45A/W46A-RXFP1(1–72) = target: T6, G45A/W46A-RXFP1(1–72) (Homo sapiens, UniProt Q9HBX9, G67A/W68A); assay: as above; type: binding; settings: 50 μM G45A/W46A-RXFP1(1–72), 0.2 μM Mn2+-DTPA-(A)-H2; versus wild type
# T6 construct: GB1 (N, cleaved yes); made in house; host or cells: E. coli BL21 (DE3) trxB
# T6 sequence (Q9HBX9 23-94 G67A/W68A): T2 sequence (Q9HBX9 23-94 F72A) with G45A, W46A, A50F
# Description: as §1, §2
# F54A/Y58A RXFP1(1–72) = target: T7, F54A/Y58A RXFP1(1–72) (Homo sapiens, UniProt Q9HBX9, F76A/Y80A); assay: as above; type: binding; settings: 50 μM F54A/Y58A RXFP1(1–72), 0.2 μM Mn2+-DTPA-(A)-H2; versus wild type
# T7 construct: GB1 (N, cleaved yes); made in house; host or cells: E. coli BL21 (DE3) trxB
# T7 sequence (Q9HBX9 23-94 F76A/Y80A): T2 sequence (Q9HBX9 23-94 F72A) with A50F, F54A, Y58A
# Description: as §1, §2
substance,measurement,setting,value
Mn^2+-DTPA-(A)-H2: H2 relaxin with a DTPA cage at the N-terminus of the A-chain loaded with Mn2+ (paramagnetic label),binding to RXFP1,RXFP1 [1],no difference
same,activating RXFP1,RXFP1 [2],no difference
same,line-broadening by Mn2+-DTPA-(A)-H2 (binding),F50A RXFP1(1–72),substantially reduced
same,line-broadening by Mn2+-DTPA-(A)-H2 (binding),F54A-RXFP1(1–72),less than that observed for wild-type RXFP1(1–72)
same,line-broadening by Mn2+-DTPA-(A)-H2 (binding),F50A^Ins-RXFP1(1–72),reduced peak broadening
same,line-broadening by Mn2+-DTPA-(A)-H2 (binding),G41A/D42A-RXFP1(1–72),attenuated
same,line-broadening by Mn2+-DTPA-(A)-H2 (binding),G45A/W46A-RXFP1(1–72),substantially less than that observed for wild-type RXFP1(1–72)
same,line-broadening by Mn2+-DTPA-(A)-H2 (binding),F54A/Y58A RXFP1(1–72),substantially reduced
